What was measured:
Test in all cases: other fluorescence titration
H3K4me3 peptide = biological target: H3K4me3 peptide
[1] = biological target: unmodified H3 (aa 1–12) peptide (UniProt P68431)
H3K4ac peptide = biological target: H3K4ac peptide

## ZZEF1ZZ2 with H1877 replaced by tryptophan (for tryptophan fluorescence) (domain or fragment)
H3K4me3 peptide
  Kd: 4.8 µM
[1]
  Kd: 4.3 µM
H3K4ac peptide
  Kd: 11 µM
